# Experiments:
# PC-3 tumor = details: mouse, in vivo; cited from earlier work
# Description: Several classes of BBN antagonists have been designed by modifying the C-terminal residues of naturally amidated BBN agonists. […] Additionally, ^68Ga-, ^111In-, and ^18F-AlF-labeled NOTA-PEG2-RM26 (where RM26 = D-Phe-Gln-Trp-Ala-Val-Gly-His-Sta-L ...
# GRPR = tested on: GRPR; design: method as in PMID 23763444, PMID 24312607; details: cell binding and internalization; cited from earlier work
# [1] = tested on: gastrin-releasing peptide (GRP) receptors in a PC-3 cell line; design: method as in PMID 16818949, PMID 16909223; details: GRP receptors in PC-3 cell line; cited from earlier work
# Description: The first proof-of-concept GRPR targeting study was conducted using a ^99mTc-labeled BBN (7–14) conjugate (RP527) for breast and prostate cancer imaging. […] Despite the general consensus rel ...
# [2] = log D by shake-flask method; format: physicochemical
# Description: The log D values were determined by a traditional shake-flask method. In a typical experiment, 10 μL sample of ^177Lu-labeled AMBA or RM1 with 0.037–0.052 GBq/mL radioconcentration and 814 GBq/mmol molar activity were added to a 4 mL mixture of 50:50 octanol:water. The mixture was shaken for one minute and mixed well. The sample was stored at room temperature for 5 min for separation of the two layers. Sample from each layer (25 μL) was added to a counting tube containing 250 μL water. The samples were mixed and counted. Triplicate measurements were made. The log D values were calculated using Equation (1): D = Counts in organic phase/Counts in the aqueous phase.(1)
# [3] = format: physicochemical; details: pH 7.2
# Description: A dose calibrator (Capintec, Florham Park, NJ, USA) and a Wizard 2480 gamma counter (Perkin Elmer, Waltham, MA, USA) were used for radioactivity measurements in the samples. A model 1100 Agilent HPLC system (Agilent, Wilmington, DE, USA) was used for the analysis of ^177Lu-labeled RM1 and AMBA and stability samples. The system consisted of a quaternary pump, degasser, column compartment capable of controlling the temperature at ambient or at 37 °C, auto-injector, a multiwavelength detector, and a Flow Ram radioisotope detector (Lab Logic, Sheffield, UK). The system was controlled by Laura software from Lab Logic. […] Zorbax Bonus RP C18 column (4.6 × 250 mm, 5 µm) was used for the analysis of ^177Lu-labeled AMBA and RM1 samples and for the separation of the ^177Lu-labeled AMBA and RM1 from their in vitro metabolic degradants in mouse, human, and canine sera stability samples.
# (§1) All mass spectral analyses were performed at the Campus Chemical Instrument Center of the Ohio State University (Columbus, OH, USA) using a Bruker UltrafleXtreme MALDI-TOF MS system. […]
# [4] = In vitro human serum stability; format: in vitro ADME; details: 50 µL labeled peptide + 450 µL human serum, 37 °C, RP-HPLC, read-out: degradation in human serum
# Description: (§2) For mouse, canine, and human sera stability studies, 50 µL of ^177Lu-labeled RM1 or AMBA was mixed with 450 µL of mouse or canine or human serum. The mixtures were incubated at 37 °C for 24 h, samples were processed at each time point, and analyzed by an RP-HPLC method.
# as §1
# (§3) A literature procedure was followed for the serum stability studies of ^177Lu-labeled RM1 and AMBA [37, 43]. […] Several mixtures, containing 50 µL of ^177Lu-labeled RM1 or AMBA (usually 1.48 to 2.22 MBq radioactivity) and 450 µL of the mouse or human or canine serum, were prepared in HPLC vials and incubated at 37 °C in the block heater. […] The sample was then centrifuged at 6000 rpm for 15 min, and 200 µL of the supernatant solution was isolated and analyzed by an RP- HPLC method given above. A control experiment was conducted where samples of ^177Lu-labeled AMBA and RM1 were incubated in the water at 37 °C and analyzed by the RP-HPLC method.
# (§4) Degradation of ^177Lu-labeled RM1 or AMBA was monitored by a reduction in percent HPLC peak area with time. […]
# [5] = format: in vitro ADME, mouse
# Description: as §2, §1, §3, §4
# [6] = Stability of high-radioconcentration samples in acetate buffer without and with stabilizers; format: physicochemical; details: 2–8 °C; for half-life of degradation (t1/2): 0.1 M acetate buffer pH 5, high radioconcentration (0.74 GBq/mL), RP-HPLC, first-order fit, average (SD) n = 3
# Description: The ^177Lu-labeled RM1 samples in acetate buffer, with 0.74 GBq/mL radio concentration, 10,175–12,765 GBq/mmol molar activity, and >99% RCP, were prepared for high-radioconcentration sample stability studies. […] Degradation of the high-radioconcentration sample in acetate buffer was at least 20 times faster than the degradation of the low-radioconcentration samples of ^177Lu-labeled RM1.
# All mass spectral analyses were performed at the Campus Chemical Instrument Center of the Ohio State University (Columbus, OH, USA) using a Bruker UltrafleXtreme MALDI-TOF MS system. An RP-HPLC method, involving a gradient mobile phase system of 50 mM Tris acetate, 10 mM EDTA at pH 7.2 (solvent A), and acetonitrile (solvent B) with 1 mL/min flow rate, was used to monitor the extent of the reaction of ^177Lu/Lu with AMBA and RM1; for the purity analysis of RM1, AMBA, Lu-RM1, Lu-AMBA, and of the final ^177Lu-labeled samples; and for monitoring the degradation of ^177Lu-labeled RM1 or AMBA samples in acetate buffer, mouse, canine, and human sera. The EDTA was incorporated to detect any unreacted ^177Lu/Lu in the samples. The gradient program used was 0% B at the beginning, raising the percentage of B to 50% in 15 min, holding B at 50% for 4 min, followed by decreasing the percentage of B to 0% in 5 min and continuing 0% for an additional 9 min. The total run time was […].
# All samples of ^177Lu-labeled RM1 were prepared in 0.1 M acetate buffer, pH 5–5.5. The ^177Lu-labeled RM1 samples, with a low radioconcentration, were stored at room temperature and at 2–8 °C storage conditions for 6 d for stability studies. The samples with a high radioconcentration, without and with a stabilizer (gentisic acid or ascorbic acid), were stored 2–8 °C for 2 and 7 d, respectively. For the effect of stabilizer (ascorbic acid or gentisic acid) on the stability of the high-radioconcentration samples of ^177Lu-labeled RM1, the samples were mixed with 500 µg of ascorbic or gentisic acid post radiolabeling. The stability or degradation of the samples was monitored by a reduction in the percent HPLC peak area of ^177Lu-labeled RM1 with time.
# Degradation of ^177Lu-labeled RM1 or AMBA was monitored by a reduction in percent HPLC peak area with time. Half-lives of in vitro acetate buffer and serum degradation for each imaging pharmaceutical were calculated by fitting the percent peak remaining versus time to a first-order kinetics model (Equations (2) and (3)) using Excel or Graph Pad Prism version 5.03 software (Graph Pad Software, Inc., La Jolla, CA, USA). Pt = P0 exp (−k × t);(2) t1/2 = 0.693/k;(3) where Pt is the percent peak area at time t, Po is the percent peak area initially, t is the time elapsed, k is the first-order rate constant, and t1/2 is the half-life of degradation reaction. All degradation kinetics experiments were conducted in triplicate, and average (n = 3) values (standard deviation given in the parenthesis) of half-life are reported.
# [7] = Stability of low-radioconcentration samples in acetate buffer; format: physicochemical; details: pH 5
# Description: The final pH of the ^177Lu-labeled RM1 and AMBA, post radiolabeling, was usually ~5 to 5.5, and the acetate buffer concentration was 0.1 M. Consequently, the degradation kinetics of ^177Lu-labeled RM1 and AMBA were evaluated in this environment after storage at room temperature (25 °C) and 2–8 °C for 5 d. Both samples were analyzed using an RP-HPLC method at various time points.
# as §1
# All samples of ^177Lu-labeled RM1 were prepared in 0.1 M acetate buffer, pH 5–5.5. […] The stability or degradation of the samples was monitored by a reduction in the percent HPLC peak area of ^177Lu-labeled RM1 with time.
# Degradation of ^177Lu-labeled RM1 or AMBA was monitored by a reduction in percent HPLC peak area with time. Half-lives of in vitro acetate buffer and serum degradation for each imaging pharmaceutical were calculated by fitting the percent peak remaining versus time to a first-order kinetics model (Equations (2) and (3)) using Excel or Graph Pad Prism version 5.03 software (Graph Pad Software, Inc., La Jolla, CA, USA). […]
compound,measurement,setting,value
"NOTA-PEG2-RM26 (where RM26 = D-Phe-Gln-Trp-Ala-Val-Gly-His-Sta-Leu-NH2) [^68Ga-labeled NOTA-PEG2-RM26, 68Ga-labeled NOTA-PEG2 conjugate of the GRPR antagonist peptide RM26]",specific tumor uptake,PC-3 tumor,8.1 ± 0.4 %ID/g
same,IC50,GRPR,0.91 ± 0.19 nM
"DO3A-CH2CO-G-[4-aminobenzyl]- Gln-Trp-Ala-Val-Gly-His-Leu-Met-NH2 [AMBA, GRPR agonist, BBN-like peptide chelator conjugate, gift from Bracco Diagnostics]",IC50,[1],4.75 ± 0.25 nM
CC(C)C[C@H](NC(=O)C[C@H](O)[C@H](CC(C)C)NC(=O)[C@H](Cc1c[nH]cn1)NC(=O)CNC(=O)[C@@H](NC(=O)[C@H](C)NC(=O)[C@H](Cc1c[nH]c2ccccc12)NC(=O)[C@H](CCC(N)=O)NC(=O)[C@@H](Cc1ccccc1)NC(=O)c1ccc(NC(=O)CNC(=O)CN2CCN(CC(=O)O)CCN(CC(=O)O)CCN(CC(=O)O)CC2)cc1)C(C)C)C(N)=O [Lu-RM1],log D,[2],−2.46 (0.07)
same,relative lipophilicity from retention times,[3],slightly more lipophilic than Lu-AMBA
"NOTA-PEG2-RM26 (where RM26 = D-Phe-Gln-Trp-Ala-Val-Gly-His-Sta-Leu-NH2) [^111In-labeled NOTA-PEG2-RM26, 111In-labeled NOTA-PEG2 conjugate of the GRPR antagonist peptide RM26]",specific tumor uptake,PC-3 tumor,5.7 ± 0.3 %ID/g
same,IC50,GRPR,1.24 ± 0.29 nM
"CC(C)C[C@H](NC(=O)C[C@H](O)[C@H](CC(C)C)NC(=O)[C@H](Cc1c[nH]cn1)NC(=O)CNC(=O)[C@@H](NC(=O)[C@H](C)NC(=O)[C@H](Cc1c[nH]c2ccccc12)NC(=O)[C@H](CCC(N)=O)NC(=O)[C@@H](Cc1ccccc1)NC(=O)c1ccc(NC(=O)CNC(=O)CN2CCN(CC(=O)O)CCN(CC(=O)O)CCN(CC(=O)O)CC2)cc1)C(C)C)C(N)=O [^177Lu-labeled RM1, metal not drawn]",metabolised at 24 h,[4],< 10%
same,degradation after 1440 min incubation,[5],complete degradation
same,half-life of degradation (t1/2),[6]; 500 µg ascorbic acid,39.2 (0.6) h
same,half-life of degradation (t1/2),[6]; 500 µg gentisic acid,142.5 (1.4) h
same,half-life of degradation (t1/2),[6]; no stabilizer,8.5 (0.2) h
same,"degradation of high- versus low-radioconcentration samples, times faster",[6]; acetate buffer,at least 20 times
same,improvement of stability versus no stabilizer,"[6]; high radioconcentration, 500 µg gentisic acid",~17 fold
same,factor by which degradation is reduced versus control without stabilizer,"[6]; high radioconcentration, ascorbic acid",≥ 5
same,degraded in acetate buffer within the same time period as the mouse serum study,[7],10-12%

# — PMC6720803, “Stability Evaluation and Stabilization of a Gastrin-Releasing Peptide Receptor (GRPR) Targeting Imaging Pharmaceutical” (Molecules, 2019)
